These results are taken from patent publication US20250230251A1 (Bristol-Myers Squibb, published 2025).

A word on the Kd: it is a measure of binding affinity in units of concentration. A high value points to a looser complex. As usually defined, the koff is the rate constant with which the complex falls apart. The term kon denotes the second-order rate constant of association. The low end stands for slow association, the high end for fast association.

Substitutions are numbered along the chain they refer to.

Experiment [1] concerns the target T1, huIL-18Rβ-HisAvi (human, UniProt O95256 20-356, biotinylated in the Octet blocking assay).
T1 construct: Soluble analyte in all SPR runs; captured on streptavidin sensors in the Octet assay; also called human IL-18Rβ; human IL-18Rβ-Avi-His
T1 sequence: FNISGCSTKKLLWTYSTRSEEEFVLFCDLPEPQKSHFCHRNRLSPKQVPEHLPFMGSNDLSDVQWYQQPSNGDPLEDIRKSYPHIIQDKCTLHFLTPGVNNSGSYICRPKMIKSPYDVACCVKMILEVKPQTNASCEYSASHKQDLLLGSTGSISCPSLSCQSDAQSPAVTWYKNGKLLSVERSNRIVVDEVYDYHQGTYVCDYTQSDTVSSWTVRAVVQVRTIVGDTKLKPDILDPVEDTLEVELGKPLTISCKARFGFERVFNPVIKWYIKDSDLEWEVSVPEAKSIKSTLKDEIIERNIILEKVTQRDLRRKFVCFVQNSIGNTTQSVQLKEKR
Put plainly: SPR screen, 1:1 fit.

In experiment [2] the target is T2, cyIL-18Rβ-HisAvi (cynomolgus monkey).
T2 construct: Soluble analyte in SPR; also called cyno IL-18Rβ; cynomolgus monkey IL-18Rβ
T2 chain: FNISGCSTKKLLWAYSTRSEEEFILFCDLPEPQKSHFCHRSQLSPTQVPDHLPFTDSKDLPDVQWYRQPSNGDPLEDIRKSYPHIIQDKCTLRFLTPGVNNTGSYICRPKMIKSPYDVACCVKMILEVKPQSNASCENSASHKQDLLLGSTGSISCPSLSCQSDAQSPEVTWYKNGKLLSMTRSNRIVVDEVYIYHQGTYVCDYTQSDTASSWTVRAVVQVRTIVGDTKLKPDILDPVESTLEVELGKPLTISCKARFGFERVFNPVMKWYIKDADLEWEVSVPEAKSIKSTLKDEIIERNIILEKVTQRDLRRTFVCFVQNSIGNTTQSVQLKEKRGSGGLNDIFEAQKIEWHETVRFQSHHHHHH
Put plainly: SPR screen, 1:1 fit.

Experiment [3] has as its target T3, human IL-18Rβ on cells (human, UniProt O95256 20-599).
T3 sequence: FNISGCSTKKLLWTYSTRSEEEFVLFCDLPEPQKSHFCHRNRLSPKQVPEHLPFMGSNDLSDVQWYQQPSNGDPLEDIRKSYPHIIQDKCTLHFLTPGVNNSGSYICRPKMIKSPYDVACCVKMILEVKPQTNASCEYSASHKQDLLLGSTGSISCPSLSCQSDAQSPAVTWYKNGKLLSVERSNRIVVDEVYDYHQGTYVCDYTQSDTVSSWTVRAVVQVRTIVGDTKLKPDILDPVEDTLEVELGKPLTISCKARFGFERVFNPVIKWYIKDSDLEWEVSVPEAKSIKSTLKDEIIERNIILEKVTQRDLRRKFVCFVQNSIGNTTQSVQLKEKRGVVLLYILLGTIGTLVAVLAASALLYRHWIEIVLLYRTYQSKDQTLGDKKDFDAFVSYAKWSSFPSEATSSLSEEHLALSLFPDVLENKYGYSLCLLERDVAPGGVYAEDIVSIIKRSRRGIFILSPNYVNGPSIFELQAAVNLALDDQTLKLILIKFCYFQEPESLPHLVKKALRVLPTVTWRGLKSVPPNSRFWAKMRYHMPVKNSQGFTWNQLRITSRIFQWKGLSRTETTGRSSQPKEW
Put plainly: cell-based or functional assay.

In experiment [4] the target is T1, huIL-18Rβ-HisAvi. Put plainly: SPR T200, mAb on anti-hFc, 37C, pH 6.
Experiment [5] has as its target T2, cyIL-18Rβ-HisAvi. Put plainly: SPR T200, mAb on anti-hFc, 37C, pH 6.
The target of experiment [6] is T1, huIL-18Rβ-HisAvi. Put plainly: SPR T200, pH 7.4; sample stored at pH 6, T0.
For experiment [7], the target named is T1, huIL-18Rβ-HisAvi. Put plainly: SPR T200, pH 7.4; sample stored at pH 6, 4 w 4C.
The target of experiment [8] is T1, huIL-18Rβ-HisAvi. Put plainly: SPR T200, pH 7.4; sample stored at pH 6, 4 w 40C.
In experiment [9] the target is T1, huIL-18Rβ-HisAvi. Put plainly: SPR T200, pH 7.4; sample stored at pH 8, 4 w 40C.
Experiment [10] addresses T1, huIL-18Rβ-HisAvi. Put plainly: SPR T200, mAb on anti-hFc, 37C, pH 7; control.
For experiment [11], the target named is T3, human IL-18Rβ on cells. Put plainly: cell-based or functional assay. The source holds these as a separate data set.
Experiment [12] addresses T3, human IL-18Rβ on cells. Put plainly: cell-based or functional assay. The source holds these as a separate data set.
Experiment [13] addresses T1, huIL-18Rβ-HisAvi. Put plainly: SPR T200, pH 7; sample T0.

B1: P21 (antibody, human IgG1, kappa, V domains shown)
VH: QVQLQQSGPGLVKPSETLSLTCTVSGGSISNYYWTWIRQPPGKGLEWIGYISDSGSTNYNPSLKSRVTISVDTSKNQFSLKLSSVTAADTAVYYCARETIVVRGFYFYVMDVWGQGTTVTVSS
VL: AIQLTQSPSSLSASVGDRVTITCRASQGISSALAWYQQRPGKAPKLLIYDASNWESGVPSRFSGSGSGTDFTLTISSLQPEDFATYYCQQFNSYPWTFGQGTKVEIKR
notes: Human IgG
With B1, the Kd is 1.4 nM with huIL-18Rβ-HisAvi [1]; 18 nM with cyIL-18Rβ-HisAvi [2]; 0.65 nM in the experiment with huIL-18Rβ-HisAvi [4]; 11 nM with cyIL-18Rβ-HisAvi [5]; 1.6 nM with huIL-18Rβ-HisAvi [6]; 1.4 nM in the experiment with huIL-18Rβ-HisAvi [7]. Besides, the Kd was 5.6 nM in the experiment with huIL-18Rβ-HisAvi [8] and 1.9 nM with huIL-18Rβ-HisAvi [9]. For the same molecule, the “IC50, LPS+IL-12 dependent IFNg production, human whole blood” value in the experiment with human IL-18Rβ on cells [3] was determined as 0.3 nM. Also, the “y-max, LPS+IL-12 dependent IFNg production, human whole blood” value in the experiment with human IL-18Rβ on cells [3] came out at 98%. For the same molecule, the koff was 0.00031 s⁻¹ with huIL-18Rβ-HisAvi [4]; 0.002 s⁻¹ with cyIL-18Rβ-HisAvi [5]; 0.00038 s⁻¹ with huIL-18Rβ-HisAvi [6]; 0.00038 s⁻¹ with huIL-18Rβ-HisAvi [7]; 0.0013 s⁻¹ in the experiment with huIL-18Rβ-HisAvi [8]; 0.0005 s⁻¹ with huIL-18Rβ-HisAvi [9]. In addition, the kon with huIL-18Rβ-HisAvi [4] was 480000 M⁻¹ s⁻¹; with cyIL-18Rβ-HisAvi [5] it was 180000 M⁻¹ s⁻¹; with huIL-18Rβ-HisAvi [6] it was 240000 M⁻¹ s⁻¹; with huIL-18Rβ-HisAvi [7], 260000 M⁻¹ s⁻¹; with huIL-18Rβ-HisAvi [8], 230000 M⁻¹ s⁻¹; with huIL-18Rβ-HisAvi [9] it was 260000 M⁻¹ s⁻¹.

B2: P20 (antibody, human IgG1, kappa)
heavy: QVQLQQSGPGLVKPSETLSLTCTVSGGSINNYYWSWIRQPPGKGLEWIGYIFYSGTTNYNPSLKSRVTISVDTSKNQFSLKLSSVTAADTAVYYCARDVGIAARNSYYYVMDVWGQGTTVTVSSASTKGPSVFPLAPSSKSTSGGTAALGCLVKDYFPEPVTVSWNSGALTSGVHTFPAVLQSSGLYSLSSVVTVPSSSLGTQTYICNVNHKPSNTKVDKRVEPKSCDKTHTCPPCPAPEAEGAPSVFLFPPKPKDTLMISRTPEVTCVVVDVSHEDPEVKFNWYVDGVEVHNAKTKPREEQYNSTYRVVSVLTVLHQDWLNGKEYKCKVSNKALPAPIEKTISKAKGQPREPQVYTLPPSREEMTKNQVSLTCLVKGFYPSDIAVEWESNGQPENNYKTTPPVLDSDGSFFLYSKLTVDKSRWQQGNVFSCSVMHEALHNHYTQKSLSLSPG
light: AIQLTQSPSSLSASVGDRVTITCRASQGISSALAWYQQKPGKAPKFLIYDASSLESGVPSRFSGSGSGTDFTLTISSLQPEDFATYYCQQFNSYPITFGQGTRLEIKRTVAAPSVFIFPPSDEQLKSGTASVVCLLNNFYPREAKVQWKVDNALQSGNSQESVTEQDSKDSTYSLSSTLTLSKADYEKHKVYACEVTHQGLSSPVTKSFNRGEC
notes: Human IgG
As to B2, the “apparent Kd (pooled screen)” value with huIL-18Rβ-HisAvi [1] is 1.4 nM; with huIL-18Rβ-HisAvi [4] it was 0.43 nM; in the experiment with huIL-18Rβ-HisAvi [6] it was 1.4 nM; with huIL-18Rβ-HisAvi [10] it was 0.18 nM; with huIL-18Rβ-HisAvi [7] it was 1.5 nM; with huIL-18Rβ-HisAvi [8], 1.3 nM. The “apparent Kd (pooled screen)” value with huIL-18Rβ-HisAvi [9] was determined as 1.6 nM. For the same molecule, the Kd in the experiment with cyIL-18Rβ-HisAvi [2] came to 3.8 nM; with cyIL-18Rβ-HisAvi [5], 1.6 nM. Also, the “IC50, LPS+IL-12 dependent IFNg production, human whole blood” value in the experiment with human IL-18Rβ on cells [3] was 0.7 nM. Further, in the experiment with human IL-18Rβ on cells [3], the “y-max, LPS+IL-12 dependent IFNg production, human whole blood” value came out at 98%. The “apparent koff (pooled screen)” value in the experiment with huIL-18Rβ-HisAvi [4] turned out to be 0.00016 s⁻¹; in the experiment with huIL-18Rβ-HisAvi [6], 0.00033 s⁻¹; with huIL-18Rβ-HisAvi [10], 5.2e-05 s⁻¹; with huIL-18Rβ-HisAvi [7], 0.00036 s⁻¹; in the experiment with huIL-18Rβ-HisAvi [8], 0.00039 s⁻¹; with huIL-18Rβ-HisAvi [9], 0.00038 s⁻¹. The “apparent kon (pooled screen)” value with huIL-18Rβ-HisAvi [4] came to 380000 M⁻¹ s⁻¹; in the experiment with huIL-18Rβ-HisAvi [6] it was 230000 M⁻¹ s⁻¹; with huIL-18Rβ-HisAvi [10] it was 280000 M⁻¹ s⁻¹; with huIL-18Rβ-HisAvi [7], 240000 M⁻¹ s⁻¹; with huIL-18Rβ-HisAvi [8], 300000 M⁻¹ s⁻¹; with huIL-18Rβ-HisAvi [9] it was 240000 M⁻¹ s⁻¹. In the experiment with cyIL-18Rβ-HisAvi [5], this molecule displayed an off-rate (koff) of 0.00028 s⁻¹. The molecule further registered an on-rate constant (kon) with cyIL-18Rβ-HisAvi [5] of 180000 M⁻¹ s⁻¹.

B3: P20-V1 (antibody, human IgG1, kappa, V domains shown)
VH: QVQLQESGPGLVKPSETLSLTCTVSGGSINNYYWSWIRQPPGKGLEWIGYIFYSGTTNYNPSLKSRVTISVDTSKNQFSLKLSSVTAADTAVYYCARDVGIAARNSYYYVMDVWGQGTTVTVSS
VL: B1 VL with R39K, L46F, D50E, N53S, W54L, W96I, K103R, V104L
notes: Variant of P20
As to B3, in the experiment with human IL-18Rβ on cells [11], the “IC50, IL-18-mediated IFNg release, KG-1 cells, Average” value turned out to be 2.01 nM; the “IC50, IL-18-mediated IFNg release, KG-1 cells, Exp. #1” value was 0.96 nM; the “IC50, IL-18-mediated IFNg release, KG-1 cells, Exp. #2” value was determined as 2.1 nM; the “IC50, IL-18-mediated IFNg release, KG-1 cells, Exp. #3” value was found to be 1.46 nM. In the experiment with human IL-18Rβ on cells [11], the “IC50, IL-18-mediated IFNg release, KG-1 cells, Exp. #4” value turned out to be 1.2 nM; the “IC50, IL-18-mediated IFNg release, KG-1 cells, Exp. #5” value was determined as 2.94 nM; the “IC50, IL-18-mediated IFNg release, KG-1 cells, Exp. #6” value was found to be 2.8 nM; the “IC50, IL-18-mediated IFNg release, KG-1 cells, Exp. #7” value turned out to be 2.6 nM. In the experiment with human IL-18Rβ on cells [12], the “IC50, IFNg, human whole blood IL-18+IL-12, Average” value came out at 2.28 nM; the “IC50, IFNg, human whole blood IL-18+IL-12, donor C121” value was 3.6 nM; the “IC50, IFNg, human whole blood IL-18+IL-12, donor C121 (second row)” value was determined as 1.3 nM; the “IC50, IFNg, human whole blood IL-18+IL-12, donor C175” value turned out to be 0.5 nM. Also, in the experiment with human IL-18Rβ on cells [12], the “IC50, IFNg, human whole blood IL-18+IL-12, donor C237” value was 2.74 nM; the “IC50, IFNg, human whole blood IL-18+IL-12, donor C238” value stood at 1.35 nM; the “IC50, IFNg, human whole blood IL-18+IL-12, donor C249” value was 4.29 nM; the “IC50, IFNg, human whole blood IL-18+IL-12, donor C252” value stood at 3.23 nM. Further, the “IC50, IFNg, human whole blood IL-18+IL-12, donor C253” value with human IL-18Rβ on cells [12] came to 1.24 nM. For the same molecule, in the experiment with huIL-18Rβ-HisAvi [13], the dissociation constant (Kd) came to 0.27 nM, the dissociation rate constant (koff) was 7.2e-05 s⁻¹ and the association rate constant (kon) was 270000 M⁻¹ s⁻¹.
